Target: maltose-binding protein (MBP)-tagged mVP35 IID (Marburg virus, UniProt P35259)
Assay: pull-down

Sequence of maltose-binding protein (MBP)-tagged mVP35 IID (P35259 200-329): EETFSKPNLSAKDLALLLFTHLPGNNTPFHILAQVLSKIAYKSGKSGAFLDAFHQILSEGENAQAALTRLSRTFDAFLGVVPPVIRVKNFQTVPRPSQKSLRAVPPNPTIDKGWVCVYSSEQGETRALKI

B1: synthetic antigen-binding fragment sFab H3 (Fab, V domains shown)
VH: EVQLVESGGGLVQPGGSLRLSCAASGFNISYYYIHWVRQAPGKGLEWVASIYPYYGYTSYADSVKGRFTISADTSKNTAYLQMNSLRAEDTAVYYCARGSSWYGAHAFDYWGQGTLVTVSS
VL: DIQMTQSPSSLSASVGDRVTITCRASQSVSSAVAWYQQKPGKAPKLLIYSASSLYSGVPSRFSGSRSGTDFTLTISSLQPEDFATYYCQQGYYYAYSLITFGQGTKVEIK
  binding result: binds

From paper PMC6827488 (ACS infectious diseases, 2019)
